Results published in patent publication CN116370651A (SHANGHAI YUANZHI BIO TECH CO LTD, dated 2023).

Target: T1, 重组PSMA蛋白 (human, UniProt Q04609 44-750)
T1 construct: also called 人PSMA蛋白; 人PSMA重组蛋白
Experiment: SPR (Biacore); recombinant PSMA immobilised on CM5 chip, J591 as analyte at 0.125-4.0 μg/mL

T1 sequence (Q04609 44-750 limits assumed): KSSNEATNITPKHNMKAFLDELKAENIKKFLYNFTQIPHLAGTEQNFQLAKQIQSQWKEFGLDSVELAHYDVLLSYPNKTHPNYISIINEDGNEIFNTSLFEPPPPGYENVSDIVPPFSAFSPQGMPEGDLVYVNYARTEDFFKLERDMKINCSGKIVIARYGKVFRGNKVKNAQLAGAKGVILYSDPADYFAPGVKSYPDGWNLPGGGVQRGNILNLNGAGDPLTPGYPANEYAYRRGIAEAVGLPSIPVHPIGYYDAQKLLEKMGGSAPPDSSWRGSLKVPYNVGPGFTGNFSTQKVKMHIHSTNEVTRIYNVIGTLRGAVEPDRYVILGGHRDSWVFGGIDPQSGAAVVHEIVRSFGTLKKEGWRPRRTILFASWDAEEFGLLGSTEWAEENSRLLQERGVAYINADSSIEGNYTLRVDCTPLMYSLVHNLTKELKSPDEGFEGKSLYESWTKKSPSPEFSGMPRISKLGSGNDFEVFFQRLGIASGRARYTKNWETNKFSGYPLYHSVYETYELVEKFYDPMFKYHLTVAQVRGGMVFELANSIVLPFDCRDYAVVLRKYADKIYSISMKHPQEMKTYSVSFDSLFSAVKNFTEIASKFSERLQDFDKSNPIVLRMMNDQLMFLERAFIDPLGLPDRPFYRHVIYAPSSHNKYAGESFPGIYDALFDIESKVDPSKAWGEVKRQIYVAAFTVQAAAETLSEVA

Kd: 1.61 nM
B1: 人源化单抗J591 (antibody, V domains shown)
VH: EVQLQQSGPELKKPGTSVRISCKTSGYTFTEYTIHWVKQSHGKSLEWIGNINPNNGGTTYNQKFEDKATLTVDKSSSTAYMELRSLTSEDSAVYYCAAGWNFDYWGQGTTLTVSS
VL: DIVMTQSHKFMSTSVGDRVSIICKASQDVGTAVDWYQQKPGQSPKLLIYWASTRHTGVPDRFTGSGSGTDFTLTITNVQSEDLADYFCQQYNSYPLTFGAGTMLDLK
notes: Expressed from pcDNA3.0 in suspension host cells and purified on Protein A; also called 人源化抗体J591; J591单抗
